Data reported in patent publication US20200377608A1 (ADAGENE, published 2020).

Biological target: T1, Recombinant human CD137 protein (human, UniProt Q07011 24-186)
T1 construct: also called CD137 receptor; 4-1BB
Assay: competition ELISA against biotinylated CD137 ligand on coated human CD137

B1: αCD137-AB1 (antibody, human IgG4 S228P, kappa, V domains shown)
VH: EVQLVESGGGLVQPGGSLRLSCAASGFSLSTGGVGVGWIRQAPGKGLEWLALIDWADDKYYSPSLKSRLTISRDNSKNTLYLQLNSLRAEDTAVYYCARGGSDTVIGDWFAYWGQGTLVTVSS
VL: DIQLTQSPSSLSASVGDRVTITCRASQSIGSYLAWYQQKPGKAPKLLIYDASNLETGVPSRFSGSGSGTDFTLTISSLQPEDFATYYCQQGYYLWTFGQGTKVEIKR
notes: also called AG10131; Hit ID 5365
binding result: binds
